Measurements taken from ChEMBL document CHEMBL2074302, “ATP-dependent transport for glucuronides in canalicular plasma membrane vesicles” (Biochem Biophys Res Commun, 1991).

Substrate: O=C(O)[C@H]1O[C@@H](Oc2ccc([N+](=O)[O-])cc2)[C@H](O)[C@@H](O)[C@@H]1O
Assay: TP_TRANSPORTER: uptake in bile canalicular membrane vesicles from Wistar rat
Format: functional, cell membranes, Bile canalicular membrane vesicle

B1: ATP-binding cassette sub-family C member 2 (Rattus norvegicus) (protein)
chain: MDKFCNSTFWDLSLLESPEADLPLCFEQTVLVWIPLGFLWLLAPWQLYSVYRSRTKRSSITKFYLAKQVFVVFLLILAAIDLSLALTEDTGQATVPPVRYTNPILYLCTWLLVLAVQHSRQWCVRKNSWFLSLFWILSVLCGVFQFQTLIRALLKDSKSNMAYSYLFFVSYGFQIVLLILTAFSGPSDSTQTPSVTASFLSSITFSWYDRTVLKGYKHPLTLEDVWDIDEGFKTRSVTSKFEAAMTKDLQKARQAFQRRLQKSQRKPEATLHGLNKKQSQSQDVLVLEEAKKKSEKTTKDYPKSWLIKSLFKTFHVVILKSFILKLIHDLLVFLNPQLLKLLIGFVKSSNSYVWFGYICAILMFAVTLIQSFCLQSYFQHCFVLGMCVRTTVMSSIYKKALTLSNLARKQYTIGETVNLMSVDSQKLMDATNYMQLVWSSVIQITLSIFFLWRELGPSILAGVGVMVLLIPVNGVLATKIRNIQVQNMKNKDKRLKIMNEILSGIKILKYFAWEPSFQEQVQGIRKKELKNLLRFGQLQSLLIFILQITPILVSVVTFSVYVLVDSANVLNAEKAFTSITLFNILRFPLSMLPMVTSSILQASVSVDRLERYLGGDDLDTSAIRRVSNFDKAVKFSEASFTWDPDLEATIQDVNLDIKPGQLVAVVGTVGSGKSSLVSAMLGEMENVHGHITIQGSTAYVPQQSWIQNGTIKDNILFGSEYNEKKYQQVLKACALLPDLEILPGGDMAEIGEKGINLSGGQKQRVSLARAAYQDADIYILDDPLSAVDAHVGKHIFNKVVGPNGLLAGKTRIFVTHGIHFLPQVDEIVVLGKGTILEKGSYRDLLDKKGVFARNWKTFMKHSGPEGEATVNNDSEAEDDDDGLIPTMEEIPEDAASLAMRRENSLRRTLSRSSRSSSRRGKSLKNSLKIKNVNVLKEKEKEVEGQKLIKKEFVETGKVKFSIYLKYLQAVGWWSILFIILFYGLNNVAFIGSNLWLSAWTSDSDNLNGTNNSSSHRDMRIGVFGALGLAQGICLLISTLWSIYACRNASKALHGQLLTNILRAPMRFFDTTPTGRIVNRFSGDISTVDDLLPQTLRSWMMCFFGIAGTLVMICMATPVFAIIIIPLSILYISVQVFYVATSRQLRRLDSVTKSPIYSHFSETVTGLPIIRAFEHQQRFLAWNEKQIDINQKCVFSWITSNRWLAIRLELVGNLVVFCSALLLVIYRKTLTGDVVGFVLSNALNITQTLNWLVRMTSEAETNIVAVERISEYINVENEAPWVTDKRPPADWPRHGEIQFNNYQVRYRPELDLVLKGITCNIKSGEKVGVVGRTGAGKSSLTNCLFRILESAGGQIIIDGIDVASIGLHDLRERLTIIPQDPILFSGSLRMNLDPFNKYSDEEVWRALELAHLRSFVSGLQLGLLSEVTEGGDNLSIGQRQLLCLGRAVLRKSKILVLDEATAAVDLETDSLIQTTIRKEFSQCTVITIAHRLHTIMDSDKIMVLDNGKIVEYGSPEELLSNRGSFYLMAKEAGIENVNHTEL
- Km: 20 µM
